Key:
[1] = molecular target: HSA 82-aa RNC with Cys34, Cys53, and Cys62 mutated to Ala (human); test: high-speed atomic force microscopy
[2] = molecular target: protein disulfide isomerase (PDI), wild type (human) (UniProt P07237); test: high-speed atomic force microscopy

Chain of protein disulfide isomerase (PDI), wild type (P07237 18-508): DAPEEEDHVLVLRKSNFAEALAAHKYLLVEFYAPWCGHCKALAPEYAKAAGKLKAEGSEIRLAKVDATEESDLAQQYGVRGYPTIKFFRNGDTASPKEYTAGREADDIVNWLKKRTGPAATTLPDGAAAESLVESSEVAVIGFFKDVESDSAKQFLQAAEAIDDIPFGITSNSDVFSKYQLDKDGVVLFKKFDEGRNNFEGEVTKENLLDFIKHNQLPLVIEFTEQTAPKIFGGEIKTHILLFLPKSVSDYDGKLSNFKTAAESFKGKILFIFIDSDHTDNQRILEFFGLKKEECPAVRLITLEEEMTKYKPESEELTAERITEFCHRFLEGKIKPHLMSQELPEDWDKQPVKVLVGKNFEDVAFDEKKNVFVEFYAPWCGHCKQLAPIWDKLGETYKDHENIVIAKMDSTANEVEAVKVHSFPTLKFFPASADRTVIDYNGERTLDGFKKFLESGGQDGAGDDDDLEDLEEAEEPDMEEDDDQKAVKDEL
Chain of protein disulfide isomerase (PDI), wild type, P07237 18-508 (enzyme; other documents disagree on this pair) (P07237 18-508): as above

An RNC binding time (PDI homodimer, 17/19 molecules) [1] greater than 60 s and an RNC binding time (PDI monomer, 52/55 molecules) [1] of less than 10 s were found for “protein disulfide isomerase (PDI), wild type (from UniProt P07237 18-508) (enzyme)” in this work.

An RNC binding time (8/59 molecules) [1] of 60 s was found for “ER-resident protein 46 (ERp46), wild type (from UniProt Q8NBS9 33-432) (enzyme)” in this work.

A stoichiometry N [2] of 2 was found for “protein disulfide isomerase (PDI), wild type, P07237 18-508 (enzyme; other documents disagree on this pair)” in this work.

From publication doi:10.1101/2021.01.04.425348
